The values that follow come from PMC9307851.

The Kd is a measure of binding affinity in units of concentration.

Data set [1] deals with DNMT3B MTase domain R670Q (human, UniProt Q9UBC3 569-853, R670Q). Put plainly: ITC; 5 C; N fixed at 0.5; ITC: 20 mM Tris-HCl pH 7.2, 200 mM NaCl, 5% glycerol, 2 mM b-mercaptoethanol, 5 C; EMSA: 50 mM Tris-HCl pH 8.0, 25% glycerol, 8% glucose, 2 mM DTT, 0.1 mg/mL BSA, 30 min, gel in 0.5x TBE at 4 C. The settings on record: protein: recombinant; tags: His6-MBP removed by TEV; (only upper strand given). A general note: In ITC the heat of successive injections is recorded.

Data set [2] addresses DNMT3B MTase domain L664P (human, UniProt Q9UBC3 569-853, L664P). The data set is described as follows: ITC; 5 C; N.M. (not measurable); text says much reduced; ITC: 20 mM Tris-HCl pH 7.2, 200 mM NaCl, 5% glycerol, 2 mM b-mercaptoethanol, 5 C; EMSA: 50 mM Tris-HCl pH 8.0, 25% glycerol, 8% glucose, 2 mM DTT, 0.1 mg/mL BSA, 30 min, gel in 0.5x TBE at 4 C. As to conditions: protein: recombinant; tags: His6-MBP removed by TEV; (only upper strand given).

B1: 24-mer DNA duplex (GAC)8 (dsDNA)
DNA 1: GACGACGACGACGACGACGACGAC
DNA 2: GTCGTCGTCGTCGTCGTCGTCGTC
As for B1, in data set [1], the Kd worked out at 24.4 ± 4.4 µM. Further, the binding result in data set [2] was “no binding”.
